B1: SARS-CoV N protein (purified recombinant) (natural protein)
chain: not shown
B2: recombinant MASP-2 (purified) (enzyme, human, UniProt O00187 16-686, looked up)
chain: TPLGPKWPEPVFGRLASPGFPGEYANDQERRWTLTAPPGYRLRLYFTHFDLELSHLCEYDFVKLSSGAKVLATLCGQESTDTERAPGKDTFYSLGSSLDITFRSDYSNEKPFTGFEAFYAAEDIDECQVAPGEAPTCDHHCHNHLGGFYCSCRAGYVLHRNKRTCSALCSGQVFTQRSGELSSPEYPRPYPKLSSCTYSISLEEGFSVILDFVESFDVETHPETLCPYDFLKIQTDREEHGPFCGKTLPHRIETKSNTVTITFVTDESGDHTGWKIHYTSTAQPCPYPMAPPNGHVSPVQAKYILKDSFSIFCETGYELLQGHLPLKSFTAVCQKDGSWDRPMPACSIVDCGPPDDLPSGRVEYITGPGVTTYKAVIQYSCEETFYTMKVNDGKYVCEADGFWTSSKGEKSLPVCEPVCGLSARTTGGRIYGGQKAKPGDFPWQVLILGGTTAAGALLYDNWVLTAAHAVYEQKHDASALDIRMGTLKRLSPHYTQAWSEAVFIHEGYTHDAGFDNDIALIKLNNKVVINSNITPICLPRKEAESFMRTDDIGTASGWGLTQRGFLARNLMYVDIPIVDHQKCTAAYEKPPYPRGSVTANMLCAGLESGGKDSCRGDSGGALVFLDSETERWFVGGIVSWGSMNCGEAGQYGVYTKVINYIPWIENIISDF
notes: also called Purified MASP-2

Experiments:
[1] = target: B2; assay: SPR; purified proteins; who was immobilised and the conditions not given; details: both partners purified
[2] = target: Purified SARS-CoV-2 N-His (SARS-CoV-2, UniProt P0DTC9 1-419); assay: as above; details: both partners purified

Binder	Kd [1] [nM]	Kd [2] [nM]
B1	268	–
B2	–	518

Source: paper PMC9470675 (Signal Transduction and Targeted Therapy, 2022)
